{"source": "paper PMC9440123", "about": "“Rtt105 regulates RPA function by configurationally stapling the flexible domains” (Nature Communications, 2022)", "binders": {"B1": {"name": "F-A-B-DBD-A^MB543 (domain or fragment)", "chain": "MSSVQLSRGDFHSIFTNKQRYDNPTGGVYQVYNTRKSDGANSNRKNLIMISDGIYHMKALLRNQAASKFQSMELQRGDIIRVIIAEPAIVRERKKYVLLVDDFELVQSRADMVNQTSTFLDNYFSEHPNETLKDEDITDSGNVANQTNASNAGVPDMLHSNSNLNANERKFANENPNSQKTRPIFAIEQLSPYQNVWTIKARVSYKGEIKTWHNQRGDGKLFNVNFLDTSGEIRATAFNDFATKFNEILQEGKVYYVSKAKLQPAKPQFTNLTHPYELNLDRDTVIEECFDESNVPKTHFNFIKLDAIQNQEVNSNVDVLGIIQTINPHFELTSRAGKKFDRRDITIVDDSGFSISVGLWNQQALDFNLPEGSVAAIKGVRVTDFGGKSLSMGFSSTLIPNPEIPEAYALKGWYDSKGRNANFITL", "modifications": "4-azidophenylalanine (4AZP) in DBD-A carrying the MB543 fluorophore; position not given"}, "B2": {"name": "Regulator of Ty1 Transposition 105 (Rtt105) (natural protein, S. cerevisiae, UniProt P40063 1-208, looked up)", "chain": "MYSNHNLNSDDCCFDWNEEKAAELQRTGVSFDRSLTPQSLRTSTRRLSEENKQQSGTMHIDTSPSVVSDIISSRRDRSQDFFGPHSSSPIAPSERQRADQRSRLESMRLTRRRDKMTKVRGGLEKMEEMIMQGEHLREMQRLKQEAQKNALPSDMAEYMEWQNNEDLEDDELLAFIEKQETYKNELEHFLNNANKNVYENNSYPNSHT", "notes": "Rtt105, S. cerevisiae, a 24 kDa protein; RSF-Duet1 plasmid; also called Rtt105^WT; unlabeled Rtt105"}, "B3": {"name": "Rtt105^Cy5 (Rtt105^C13S labeled with Cy5 on Cys-12) (natural protein, S. cerevisiae, UniProt P40063 1-208, looked up)", "chain": "B2 chain with C13S", "modifications": "Cy5 (maleimide chemistry) on Cys-12", "notes": "Rtt105, S. cerevisiae, single-Cys version; also called Cy5-labeled Rtt105; fluorescent Rtt105; source: E. coli, purified similar to the wild-type protein, labeled with Cy5-maleimide"}, "B4": {"name": "5'-Cy5-(dT)30 (ssDNA)", "DNA": "TTTTTTTTTTTTTTTTTTTTTTTTTTTTTT"}, "B5": {"name": "5'-Cy3-(dT)40 (ssDNA)", "DNA": "TTTTTTTTTTTTTTTTTTTTTTTTTTTTTTTTTTTTTTTT"}, "B6": {"name": "3'-Cy3-(dT)40 (ssDNA)", "DNA": "B5 DNA"}, "B7": {"name": "5'-FAM-(dT)25 (ssDNA)", "DNA": "TTTTTTTTTTTTTTTTTTTTTTTTT"}, "B8": {"name": "(dT)97 (ssDNA)", "DNA": "TTTTTTTTTTTTTTTTTTTTTTTTTTTTTTTTTTTTTTTTTTTTTTTTTTTTTTTTTTTTTTTTTTTTTTTTTTTTTTTTTTTTTTTTTTTTTTTTT"}}, "key": {"[1]": {"target": "B2", "assay": "other fluorescence titration; MB543 fluorescence quenching; 200 nM fluorescent RPA or F-A-B in the cuvette, unlabeled Rtt105 added stepwise; 23 °C; 30 mM HEPES pH 7.8, 100 mM KCl, 6% glycerol, 5 mM MgCl2, 1 mM βME; quadratic fit, apparent KD", "conditions": "both partners purified"}, "[2]": {"target": "RPA-DBD-A^MB543 (S. cerevisiae) (UniProt P22336)", "assay": "other fluorescence titration; MB543 fluorescence quenching; 200 nM fluorescent RPA or F-A-B in the cuvette, unlabeled Rtt105 added stepwise; 23 °C; 30 mM HEPES pH 7.8, 100 mM KCl, 6% glycerol, 5 mM MgCl2, 1 mM βME; quadratic fit, apparent KD"}, "[3]": {"target": "T1, Replication Protein A (RPA), S. cerevisiae heterotrimer of RPA70, RPA32 and RPA14 (S. cerevisiae, UniProt P22336 1-621; P26754 1-273; P26755 1-122)", "T1 construct": "RPA70 (Rfa1), large subunit of S. cerevisiae RPA; holds OB-F, DBD-A, DBD-B and DBD-C; RPA32 (Rfa2), middle subunit of S. cerevisiae RPA; holds DBD-D and the winged-helix domain; RPA14 (Rfa3), small subunit of S. cerevisiae RPA; holds OB-E; also called yeast RPA; unlabeled RPA; copies: + +", "T1 sequence (P26754 whole entry, chain 2 of 2, the tested form may be a part)": "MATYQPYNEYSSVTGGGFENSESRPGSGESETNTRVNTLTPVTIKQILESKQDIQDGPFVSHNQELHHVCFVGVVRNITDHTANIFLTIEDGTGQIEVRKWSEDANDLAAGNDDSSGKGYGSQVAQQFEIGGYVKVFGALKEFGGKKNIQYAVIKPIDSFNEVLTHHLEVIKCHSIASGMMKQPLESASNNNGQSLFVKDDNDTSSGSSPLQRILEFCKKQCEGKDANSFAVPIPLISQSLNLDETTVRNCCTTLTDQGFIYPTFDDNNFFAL", "T1 sequence (P26755 whole entry, chain 3 of 2, the tested form may be a part)": "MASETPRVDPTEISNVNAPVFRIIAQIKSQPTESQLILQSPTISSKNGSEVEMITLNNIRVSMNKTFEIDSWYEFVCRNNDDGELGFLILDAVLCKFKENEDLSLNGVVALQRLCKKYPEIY", "assay": "cross-linking; BS3 (5 mM) cross-linking of RPA with Rtt105 in 30 mM HEPES, 200 mM KCl, pH 7.8; SDS-PAGE shift and mass spectrometry of cross-linked peptides (XL-MS)", "conditions": "both partners purified"}, "[4]": {"target": "RPA-DBD-D^MB543 (S. cerevisiae) (UniProt P22336)", "assay": "optical tweezers with confocal fluorescence (C-trap); Rtt105^Cy5-RPA premixed 1:1, incubated with stretched lambda ssDNA, then moved to a buffer channel; 30 mM HEPES pH 7.8, 100 mM KCl, 6% glycerol, 5 mM MgCl2"}, "[5]": {"target": "RPA-DBD-A^Cy3 (S. cerevisiae) (UniProt P22336)", "assay": "FRET or BRET; stopped-flow FRET, Cy3 excited at 535 nm, Cy5 emission; 100 nM each of RPA^Cy3 and Rtt105^Cy5; 25 °C; RPA reaction buffer; no DNA"}, "[6]": {"target": "RPA-DBD-D^Cy3 (S. cerevisiae) (UniProt P22336)", "assay": "FRET or BRET; stopped-flow FRET, Cy3 excited at 535 nm, Cy5 emission; 100 nM each of RPA^Cy3 and Rtt105^Cy5; 25 °C; RPA reaction buffer; no DNA"}, "[7]": {"target": "T1, Replication Protein A (RPA), S. …", "assay": "AUC; sedimentation velocity as a14; Rtt105^Cy5, RPA and Rad52 mixed in equimolar concentrations, no ssDNA; 280 nm and 650 nm", "conditions": "both partners purified"}, "RPA (RPA70/RPA32/RPA14) [8]": {"target": "T2, RPA (RPA70/RPA32/RPA14) (Saccharomyces cerevisiae, UniProt P22336;P26754;P26755 1-621;1-273;1-122)", "assay": "EMSA; no Rtt105; 5 mM MgCl2; stoichiometric, apparent Kd; EMSA: 25 mM Tris-Cl pH 7.5, 200 mM NaCl, 5 mM MgCl2, 5% glycerol, 0.05% Tween-20, 25 C; anisotropy/FRET: 30 mM HEPES pH 7.8, 100 mM KCl, 6% glycerol, 5 mM MgCl2, 1 mM bME, 23 C (stopped flow 25 C)", "conditions": "protein: recombinant; copies: 1;1;1; label: 5'-Cy5"}, "[9]": {"target": "RPA (RPA70/RPA32/RPA14);Rtt105 (Saccharomyces cerevisiae;Saccharomyces …, UniProt P22336;P26754;P26755;P40063 1-621;1-273;1-122;1-208, |)", "sequence (P22336 whole entry, chain 1 of 4, one chain of several)": "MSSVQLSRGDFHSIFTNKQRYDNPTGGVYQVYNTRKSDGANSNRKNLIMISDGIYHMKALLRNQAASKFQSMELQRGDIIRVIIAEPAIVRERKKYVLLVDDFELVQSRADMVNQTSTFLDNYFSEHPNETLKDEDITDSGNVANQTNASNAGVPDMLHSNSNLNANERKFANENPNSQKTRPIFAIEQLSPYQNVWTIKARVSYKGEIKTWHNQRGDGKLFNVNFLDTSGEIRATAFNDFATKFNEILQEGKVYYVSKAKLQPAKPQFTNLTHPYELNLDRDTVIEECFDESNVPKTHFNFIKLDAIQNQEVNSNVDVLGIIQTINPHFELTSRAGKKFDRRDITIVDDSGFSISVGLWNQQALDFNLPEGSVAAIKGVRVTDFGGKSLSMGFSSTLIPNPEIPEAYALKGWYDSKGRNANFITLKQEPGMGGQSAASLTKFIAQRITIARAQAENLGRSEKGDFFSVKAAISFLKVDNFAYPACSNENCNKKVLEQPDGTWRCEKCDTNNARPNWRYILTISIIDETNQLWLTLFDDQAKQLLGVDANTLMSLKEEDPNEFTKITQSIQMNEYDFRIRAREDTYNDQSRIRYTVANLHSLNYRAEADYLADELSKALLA", "sequence (P26754 whole entry, chain 2 of 4, one chain of several)": "as the sequence (P26754 whole entry, chain 2 of 2, the tested form may be a part) above", "sequence (P26755 whole entry, chain 3 of 4, one chain of several)": "as the sequence (P26755 whole entry, chain 3 of 2, the tested form may be a part) above", "assay": "EMSA; Rtt105 premixed 1:1; 5 mM MgCl2; stoichiometric, apparent Kd; EMSA: 25 mM Tris-Cl pH 7.5, 200 mM NaCl, 5 mM MgCl2, 5% glycerol, 0.05% Tween-20, 25 C; anisotropy/FRET: 30 mM HEPES pH 7.8, 100 mM KCl, 6% glycerol, 5 mM MgCl2, 1 mM bME, 23 C (stopped flow 25 C)", "conditions": "protein: recombinant;recombinant; tags: ;; copies: 1;1;1;1; label: 5'-Cy5"}, "RPA-DBD-A-Cy5": {"target": "RPA-DBD-A-Cy5 (Saccharomyces cerevisiae, UniProt P22336;P26754;P26755 1-621;1-273;1-122)", "sequence (P26754 whole entry, chain 2 of 2)": "as the sequence (P26754 whole entry, chain 2 of 2, the tested form may be a part) above", "sequence (P26755 whole entry, chain 3 of 2)": "as the sequence (P26755 whole entry, chain 3 of 2, the tested form may be a part) above", "assay": "stopped-flow FRET; no Rtt105; kobs1 18.2, kobs2 2.7 s-1; EMSA: 25 mM Tris-Cl pH 7.5, 200 mM NaCl, 5 mM MgCl2, 5% glycerol, 0.05% Tween-20, 25 C; anisotropy/FRET: 30 mM HEPES pH 7.8, 100 mM KCl, 6% glycerol, 5 mM MgCl2, 1 mM bME, 23 C (stopped flow 25 C)", "conditions": "protein: recombinant; tags: Cy5 on DBD-A via 4AZP; copies: 1;1;1; label: 5'-Cy3"}, "RPA-DBD-A-Cy5;Rtt105": {"target": "RPA-DBD-A-Cy5;Rtt105 (Saccharomyces cerevisiae;Saccharomyces …, UniProt P22336;P26754;P26755;P40063 1-621;1-273;1-122;1-208, |)", "sequence (P26754 whole entry, chain 2 of 2)": "as the sequence (P26754 whole entry, chain 2 of 2, the tested form may be a part) above", "sequence (P26755 whole entry, chain 3 of 2)": "as the sequence (P26755 whole entry, chain 3 of 2, the tested form may be a part) above", "assay": "stopped-flow FRET; with Rtt105; kobs1 15, kobs2 1.9 s-1; EMSA: 25 mM Tris-Cl pH 7.5, 200 mM NaCl, 5 mM MgCl2, 5% glycerol, 0.05% Tween-20, 25 C; anisotropy/FRET: 30 mM HEPES pH 7.8, 100 mM KCl, 6% glycerol, 5 mM MgCl2, 1 mM bME, 23 C (stopped flow 25 C)", "conditions": "protein: recombinant;recombinant; tags: Cy5 on DBD-A via 4AZP;; copies: 1;1;1;1; label: 5'-Cy3"}, "RPA-DBD-D-Cy5": {"target": "RPA-DBD-D-Cy5 (Saccharomyces cerevisiae, UniProt P22336;P26754;P26755 1-621;1-273;1-122)", "sequence (P26754 whole entry, chain 2 of 2)": "as the sequence (P26754 whole entry, chain 2 of 2, the tested form may be a part) above", "sequence (P26755 whole entry, chain 3 of 2)": "as the sequence (P26755 whole entry, chain 3 of 2, the tested form may be a part) above", "assay": "stopped-flow FRET; no Rtt105; kobs1 100.3, kobs2 16, kobs3 1.4 s-1; EMSA: 25 mM Tris-Cl pH 7.5, 200 mM NaCl, 5 mM MgCl2, 5% glycerol, 0.05% Tween-20, 25 C; anisotropy/FRET: 30 mM HEPES pH 7.8, 100 mM KCl, 6% glycerol, 5 mM MgCl2, 1 mM bME, 23 C (stopped flow 25 C)", "conditions": "protein: recombinant; tags: Cy5 on DBD-D via 4AZP; copies: 1;1;1; label: 3'-Cy3"}, "RPA-DBD-D-Cy5;Rtt105": {"target": "RPA-DBD-D-Cy5;Rtt105 (Saccharomyces cerevisiae;Saccharomyces …, UniProt P22336;P26754;P26755;P40063 1-621;1-273;1-122;1-208, |)", "sequence (P26754 whole entry, chain 2 of 2)": "as the sequence (P26754 whole entry, chain 2 of 2, the tested form may be a part) above", "sequence (P26755 whole entry, chain 3 of 2)": "as the sequence (P26755 whole entry, chain 3 of 2, the tested form may be a part) above", "assay": "stopped-flow FRET; with Rtt105; kobs1 0.5, kobs2 48, kobs3 3.6 s-1; EMSA: 25 mM Tris-Cl pH 7.5, 200 mM NaCl, 5 mM MgCl2, 5% glycerol, 0.05% Tween-20, 25 C; anisotropy/FRET: 30 mM HEPES pH 7.8, 100 mM KCl, 6% glycerol, 5 mM MgCl2, 1 mM bME, 23 C (stopped flow 25 C)", "conditions": "protein: recombinant;recombinant; tags: Cy5 on DBD-D via 4AZP;; copies: 1;1;1;1; label: 3'-Cy3"}, "hRPA;RPAIN": {"target": "hRPA;RPAIN (human;human, UniProt P27694;P15927;P35244;Q86UA6 1-616;1-270;1-121;1-219, |)", "sequence (P27694 whole entry, chain 1 of 4)": "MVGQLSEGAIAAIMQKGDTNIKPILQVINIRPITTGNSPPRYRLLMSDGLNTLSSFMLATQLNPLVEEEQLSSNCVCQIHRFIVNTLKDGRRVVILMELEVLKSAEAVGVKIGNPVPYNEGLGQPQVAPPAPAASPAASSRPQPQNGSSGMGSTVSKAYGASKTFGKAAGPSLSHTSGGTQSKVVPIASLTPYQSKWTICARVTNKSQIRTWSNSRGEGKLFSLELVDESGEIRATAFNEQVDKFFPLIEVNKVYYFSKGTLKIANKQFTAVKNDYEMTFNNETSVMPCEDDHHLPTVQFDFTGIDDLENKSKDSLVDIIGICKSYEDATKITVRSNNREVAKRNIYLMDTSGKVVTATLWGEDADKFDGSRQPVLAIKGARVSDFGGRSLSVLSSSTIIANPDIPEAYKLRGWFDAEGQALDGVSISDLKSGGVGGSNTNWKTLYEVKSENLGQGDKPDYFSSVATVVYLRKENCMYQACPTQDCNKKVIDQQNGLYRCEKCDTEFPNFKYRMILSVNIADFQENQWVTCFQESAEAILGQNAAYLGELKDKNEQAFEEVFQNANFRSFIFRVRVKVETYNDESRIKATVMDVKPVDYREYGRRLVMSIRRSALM", "sequence (P15927 whole entry, chain 2 of 4)": "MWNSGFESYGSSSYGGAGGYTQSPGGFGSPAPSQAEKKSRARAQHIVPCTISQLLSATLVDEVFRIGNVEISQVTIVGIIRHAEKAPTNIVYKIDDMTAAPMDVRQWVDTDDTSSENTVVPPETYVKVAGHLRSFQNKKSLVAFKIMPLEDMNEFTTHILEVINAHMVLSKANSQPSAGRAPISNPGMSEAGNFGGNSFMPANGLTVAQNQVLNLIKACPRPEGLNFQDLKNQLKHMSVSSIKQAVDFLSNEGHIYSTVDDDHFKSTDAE", "sequence (P35244 whole entry, chain 3 of 4)": "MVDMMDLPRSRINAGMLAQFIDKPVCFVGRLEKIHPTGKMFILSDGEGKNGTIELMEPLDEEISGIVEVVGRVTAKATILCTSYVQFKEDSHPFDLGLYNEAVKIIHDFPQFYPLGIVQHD", "sequence (Q86UA6 whole entry, chain 4 of 4)": "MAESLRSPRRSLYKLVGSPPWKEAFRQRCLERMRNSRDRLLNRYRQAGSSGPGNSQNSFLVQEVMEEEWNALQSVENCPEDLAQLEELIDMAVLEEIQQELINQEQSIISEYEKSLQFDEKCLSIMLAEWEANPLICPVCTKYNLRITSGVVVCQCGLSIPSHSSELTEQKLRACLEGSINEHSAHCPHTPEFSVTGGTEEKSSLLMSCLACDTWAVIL", "assay": "fluorescence anisotropy; 20 nM DNA; stoichiometric; hRPA:RPAIN 1:2; EMSA: 25 mM Tris-Cl pH 7.5, 200 mM NaCl, 5 mM MgCl2, 5% glycerol, 0.05% Tween-20, 25 C; anisotropy/FRET: 30 mM HEPES pH 7.8, 100 mM KCl, 6% glycerol, 5 mM MgCl2, 1 mM bME, 23 C (stopped flow 25 C)", "conditions": "protein: recombinant;recombinant; tags: ;N-terminal SUMO tag removed; copies: 1;1;1;2; label: 5'-FAM"}, "hRPA": {"target": "hRPA (human, UniProt P27694;P15927;P35244 1-616;1-270;1-121)", "sequence (P27694 whole entry, chain 1 of 3)": "as the sequence (P27694 whole entry, chain 1 of 4) above", "sequence (P15927 whole entry, chain 2 of 3)": "as the sequence (P15927 whole entry, chain 2 of 4) above", "sequence (P35244 whole entry, chain 3 of 3)": "as the sequence (P35244 whole entry, chain 3 of 4) above", "assay": "fluorescence anisotropy; 20 nM DNA; stoichiometric; no RPAIN; EMSA: 25 mM Tris-Cl pH 7.5, 200 mM NaCl, 5 mM MgCl2, 5% glycerol, 0.05% Tween-20, 25 C; anisotropy/FRET: 30 mM HEPES pH 7.8, 100 mM KCl, 6% glycerol, 5 mM MgCl2, 1 mM bME, 23 C (stopped flow 25 C)", "conditions": "protein: recombinant; copies: 1;1;1; label: 5'-FAM"}, "RPA (RPA70/RPA32/RPA14) [10]": {"target": "T2, RPA (RPA70/RPA32/RPA14)", "assay": "competition; facilitated exchange: excess free RPA displaces prebound labeled RPA; EMSA: 25 mM Tris-Cl pH 7.5, 200 mM NaCl, 5 mM MgCl2, 5% glycerol, 0.05% Tween-20, 25 C; anisotropy/FRET: 30 mM HEPES pH 7.8, 100 mM KCl, 6% glycerol, 5 mM MgCl2, 1 mM bME, 23 C (stopped flow 25 C)", "conditions": "protein: recombinant; copies: 1;1;1"}}, "note": "Where a chain is given by its changes, count along the chain named. Numbers in names are those of the source."}
{"binder": "B1", "values": [{"measurement": "Kd", "setting": "[1]", "value": 33.9, "unit": "nM"}]}
{"binder": "B2", "values": [{"measurement": "Kd", "setting": "[2]", "value": 61.1, "unit": "nM"}, {"measurement": "binding result", "setting": "[3]", "value": "binds"}]}
{"binder": "B3", "values": [{"measurement": "t1/2 of dissociation from RPA on ssDNA", "setting": "[4]", "value": 5, "unit": "s"}, {"measurement": "kobs (single-step model)", "setting": "[5]", "value": 0.2, "unit": "s⁻¹"}, {"measurement": "kobs,1 (two-step model)", "setting": "[6]", "value": 3.5, "unit": "s⁻¹"}, {"measurement": "kobs,2 (two-step model)", "setting": "[6]", "value": 0.2, "unit": "s⁻¹"}, {"measurement": "binding result", "setting": "[7]", "value": "binds"}]}
{"binder": "B4", "values": [{"measurement": "Kd", "setting": "RPA (RPA70/RPA32/RPA14) [8]", "value": "5 ± 0.7", "unit": "nM"}, {"measurement": "Kd", "setting": "[9]", "value": "5.7 ± 1.2", "unit": "nM"}]}
{"binder": "B5", "values": [{"measurement": "binding result", "setting": "RPA-DBD-A-Cy5", "value": "binds"}, {"measurement": "binding result", "setting": "RPA-DBD-A-Cy5;Rtt105", "value": "binds"}]}
{"binder": "B6", "values": [{"measurement": "binding result", "setting": "RPA-DBD-D-Cy5", "value": "binds"}, {"measurement": "binding result", "setting": "RPA-DBD-D-Cy5;Rtt105", "value": "binds"}]}
{"binder": "B7", "values": [{"measurement": "binding result", "setting": "hRPA;RPAIN", "value": "binds"}, {"measurement": "binding result", "setting": "hRPA", "value": "binds"}]}
{"binder": "B8", "values": [{"measurement": "binding result", "setting": "RPA (RPA70/RPA32/RPA14) [10]", "value": "binds"}]}
